According to the supplement of paper PMC6757056:
± gives the standard deviation of the averaged measurements.

B1: library; a variant is named by its letters at N, in order (parent)
chain: GCUGUCACCGGUGCUUGGUACGUUAUAUUCAGCCGGUCUGAUGAGUCUNNNNNNAGACGAAACAGC

Key:
(6R,S)-folinic acid [1] = variants of: B1; test: normalized RNA/DNA level without ligand (relative to sTRSVctl = 100) (log10 (% of sTRSVctl)); HEK293T overexpressing SLC46A1; higher = less ribozyme self-cleavage, higher mRNA level; conditions: without (6R,S)-folinic acid; ligand present: no
How it was run: (§1)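 For each 6-well well, 4 µg of library plasmid encoding mCherry-linked ribozyme switches, or eGFP-linked ones in some ligand experiments, was transfected into HEK293T. Any ligand was added 1 h before transfection, and RNA was extracted with EDTA 72 h after it, then reverse-transcribed, amplified, barcoded and sequenced. RNA level was obtained by dividing RNA reads by DNA reads, normalizing to a spiked-in non-cleaving sequence or to the top sequences, then scaling and log-transforming. The top set was 25 sequences, scaling was ×100 with log10, and ≥100 DNA reads were required.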

(6R,S)-folinic acid [2] = variants of: B1; test: normalized RNA/DNA level with ligand (relative to sTRSVctl = 100) (log10 (% of sTRSVctl)); HEK293T overexpressing SLC46A1; ligand concentration (+) RNA-Seq: 6 mM; higher = less ribozyme self-cleavage, higher mRNA level; conditions: with (6R,S)-folinic acid; ligand present: yes
How it was run: as §1

Variant | normalized RNA/DNA level without ligand (log10) ((6R,S)-folinic acid [1]) | normalized RNA/DNA level with ligand (log10) ((6R,S)-folinic acid [2])
UCCAUG | 1.857 ± 0.005 | 1.97 ± 0.053
UCCAUA | 1.972 ± 0.0018 | 1.98 ± 0.042
UCCAUC | 2.036 ± 0.018 | 2.01 ± 0.051
UCCAUU | 2.033 ± 0.011 | 2.006 ± 0.006
CCCAGG | 2.042 ± 0.006 | 2.01 ± 0.025
CCCAGU | 2.05 ± 0.038 | 2.034 ± 0.02
CCCAGA | 2.0467 ± 0.00053 | 2.029 ± 0.012
CCCAGC | 2.06 ± 0.035 | 2.06 ± 0.068
CCCUAC | 2.07 ± 0.025 | 2.085 ± 0.019
CCCUAU | 2.0351 ± 0.0014 | 2.05 ± 0.038
CCCUAG | 2.018 ± 0.004 | 2.045 ± 0.0096
CCCUAA | 2.0445 ± 0.00066 | 2.039 ± 0.015
UCCCCA | 2.052 ± 0.0085 | 2.04 ± 0.033
UCCCCC | 2.06 ± 0.033 | 2.063 ± 0.012
UCCCCU | 2.06 ± 0.025 | 2.04 ± 0.049
UCCCCG | 1.997 ± 0.008 | 2.041 ± 0.019
CCCAUG | 2.044 ± 0.0075 | 2 ± 0.033
CCCAUU | 2.09 ± 0.024 | 2.079 ± 0.01
CCCAUA | 2.02 ± 0.036 | 2.03 ± 0.05
ACCCAG | 1.98 ± 0.01 | 2 ± 0.044
ACCCAA | 2.02 ± 0.024 | 2.018 ± 0.013
ACCCAU | 2.013 ± 0.01 | 2.01 ± 0.036
ACCCAC | 2.02 ± 0.016 | 2 ± 0.044
GCCAUA | 2.016 ± 0.0031 | 2.02 ± 0.052

Variant | normalized RNA/DNA level without ligand (log10) ((6R,S)-folinic acid [1]) | normalized RNA/DNA level with ligand (log10) ((6R,S)-folinic acid [2])
GCCAUU | 2.041 ± 0.0051 | 2.008 ± 0.015
GCCAUC | 2.02 ± 0.031 | 2 ± 0.032
CCCCUC | 2.05 ± 0.023 | 1.99 ± 0.038
CCCCUU | 2.06 ± 0.023 | 2.05 ± 0.034
CCCUUU | 2.06 ± 0.024 | 2.06 ± 0.044
CCCUUA | 2.065 ± 0.0096 | 2.08 ± 0.064
CCCUUG | 2.069 ± 0.0099 | 2.091 ± 0.017
ACCAUC | 2.044 ± 0.011 | 2.02 ± 0.04
ACCAUU | 2.02 ± 0.03 | 2.044 ± 0.0061
ACCAUG | 1.982 ± 0.012 | 2.016 ± 0.0077
ACCAUA | 1.988 ± 0.0064 | 2.013 ± 0.019
CCCGUU | 2.057 ± 0.011 | 2.04 ± 0.023
CCCGUA | 2.062 ± 0.016 | 2.07 ± 0.055
CCCGUC | 2.05 ± 0.056 | 2.03 ± 0.065
CCCGUG | 2.018 ± 0.016 | 2.012 ± 0.014
UCCCGC | 2.013 ± 0.015 | 1.99 ± 0.053
UCCCGG | 2.05 ± 0.018 | 2.05 ± 0.059
UCCCGU | 2.041 ± 0.013 | 2.04 ± 0.044
UCCCGA | 2.033 ± 0.008 | 2.07 ± 0.033
GCCAGU | 2.056 ± 0.0089 | 2.049 ± 0.015
ACCGGG | 2.068 ± 0.0057 | 2.06 ± 0.053
ACCGGA | 2.056 ± 0.0065 | 2.042 ± 0.013
ACCGGU | 2.068 ± 0.0071 | 2.052 ± 0.015
ACCGGC | 2.1359 ± 0.0014 | 2.085 ± 0.015

Variant | normalized RNA/DNA level without ligand (log10) ((6R,S)-folinic acid [1]) | normalized RNA/DNA level with ligand (log10) ((6R,S)-folinic acid [2])
UCCGAU | 1.96 ± 0.026 | 2 ± 0.038
UCCGAA | 1.941 ± 0.015 | 1.978 ± 0.019
UCCGAC | 2.029 ± 0.013 | 2.031 ± 0.0089
UCAUUU | 2.021 ± 0.014 | 2.02 ± 0.047
GCCUGC | 2.052 ± 0.01 | 2.046 ± 0.013
GCCUGU | 2.057 ± 0.0027 | 2.06 ± 0.038
GCCUGG | 2.001 ± 0.011 | 2.03 ± 0.034
GCCUGA | 2.036 ± 0.0063 | 2.07 ± 0.028
UCCUUA | 2.015 ± 0.013 | 2.05 ± 0.0049
UCCUUC | 2.084 ± 0.002 | 2.05 ± 0.035
UCCUUU | 2.07 ± 0.021 | 2.08 ± 0.032
GCCCUG | 2.05 ± 0.023 | 2.04 ± 0.039
GCCCUC | 2.047 ± 0.015 | 2.03 ± 0.065
GCCCUA | 2.034 ± 0.015 | 2.05 ± 0.032
GCCCUU | 2.021 ± 0.0059 | 2.01 ± 0.044
CCCGCC | 2.0796 ± 0.00065 | 2.05 ± 0.03
CCCGCA | 2.06 ± 0.035 | 2.071 ± 0.02
CCCGCU | 2.109 ± 0.014 | 2.08 ± 0.068
CCCGCG | 2.09 ± 0.023 | 2.01 ± 0.034
GCCUUG | 1.994 ± 0.0032 | 2.03 ± 0.033
GCCUUU | 2.04 ± 0.032 | 2.05 ± 0.044
GCCUUC | 2.05 ± 0.042 | 2.062 ± 0.012
ACCAGU | 2.005 ± 0.0042 | 2.02 ± 0.013
ACCAGG | 1.9569 ± 0.0006 | 2 ± 0.024

Variant | normalized RNA/DNA level without ligand (log10) ((6R,S)-folinic acid [1]) | normalized RNA/DNA level with ligand (log10) ((6R,S)-folinic acid [2])
ACCAGC | 2.071 ± 0.0016 | 2.06 ± 0.038
ACCAGA | 2.019 ± 0.013 | 2.05 ± 0.033
UCCUAC | 2.024 ± 0.015 | 2.05 ± 0.026
UCCUAA | 1.981 ± 0.0064 | 2.018 ± 0.014
UCCUAG | 1.849 ± 0.004 | 2.009 ± 0.0087
UCCUAU | 1.9805 ± 0.00094 | 2.03 ± 0.034
ACCGAU | 1.973 ± 0.0074 | 1.99 ± 0.044
ACCGAC | 2.0415 ± 0.00053 | 2.03 ± 0.058
UCCUGC | 2.057 ± 0.01 | 2.077 ± 0.014
UCCUGA | 2.025 ± 0.0055 | 2.045 ± 0.018
UCCUGU | 1.999 ± 0.018 | 2.05 ± 0.043
UCCUGG | 1.91 ± 0.023 | 2.04 ± 0.023
GCCGGU | 2.067 ± 0.01 | 2.03 ± 0.034
GCCGGA | 2.07 ± 0.036 | 2.02 ± 0.031
GCCGGC | 2.049 ± 0.0034 | 1.98 ± 0.051
GCCGGG | 2.086 ± 0.015 | 2.045 ± 0.003
CCCCGU | 2.05 ± 0.028 | 2.047 ± 0.01
CCCCGG | 2.083 ± 0.0038 | 2.06 ± 0.022
CCCCGC | 2.09 ± 0.0037 | 2.05 ± 0.034
UCCUCC | 2.089 ± 0.016 | 2.02 ± 0.046
UCCUCU | 2.054 ± 0.0029 | 2.04 ± 0.024
UCCUCG | 1.9194 ± 0.00071 | 2 ± 0.029
UCCUCA | 2.046 ± 0.013 | 2.07 ± 0.034
ACCCCU | 1.997 ± 0.0056 | 1.98 ± 0.073

Variant | normalized RNA/DNA level without ligand (log10) ((6R,S)-folinic acid [1]) | normalized RNA/DNA level with ligand (log10) ((6R,S)-folinic acid [2])
ACCCCG | 1.998 ± 0.0083 | 1.99 ± 0.073
ACCCCA | 2.02 ± 0.011 | 2 ± 0.05
ACCCCC | 2.04 ± 0.016 | 2.002 ± 0.015
GCCUAA | 2.006 ± 0.019 | 2.022 ± 0.012
GCCUAC | 2.056 ± 0.0034 | 2.086 ± 0.0065
GCCUAG | 1.98 ± 0.023 | 2.05 ± 0.032
GCCUAU | 2.027 ± 0.018 | 2.065 ± 0.02
CCCGGG | 2.019 ± 0.0077 | 1.987 ± 0.0062
CCCGGC | 2.08 ± 0.037 | 2.02 ± 0.065
CCCGGA | 2.073 ± 0.016 | 2.03 ± 0.061
ACCGCU | 2.07 ± 0.026 | 2.08 ± 0.028
ACCGCG | 1.994 ± 0.015 | 2.05 ± 0.017
ACCGCC | 2.045 ± 0.02 | 2.05 ± 0.041
ACCGCA | 2.009 ± 0.018 | 2.01 ± 0.024
ACCUUC | 2.038 ± 0.014 | 2.04 ± 0.045
ACCUUA | 2.045 ± 0.009 | 2.041 ± 0.017
ACCUUG | 1.953 ± 0.0055 | 1.999 ± 0.011
UCCAAU | 1.953 ± 0.0052 | 1.96 ± 0.028
UCCAAA | 1.982 ± 0.0034 | 1.986 ± 0.015
UCCAAC | 2.067 ± 0.0087 | 2.06 ± 0.03
